How the values were obtained:
GPpep1 = biological target: T1, GPpep1
T1 chain: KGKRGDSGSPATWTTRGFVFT

[1] = biological target: the molecule itself; test: gel filtration HPLC and analytical ultracentrifugation (main population 310±10 kDa)
Procedure: FIG. 11. rGPBP and rGPBPΔ26 form very active high molecular weight aggregates. About 300 μg of rGPBP (A) or rGPBPΔ26 (B) were subjected to gel filtration HPLC as described under Material and Methods. Vertical arrowheads and numbers respectively indicate the elution profile and molecular mass (kDa) of the molecular weight standards used. Larger aggregates eluted in the void volume (I), and the bulk of the material present in the samples eluted in the fractionation range of the column as a second peak between the 669 and 158 kDa markers (II). Fifteen microliters of the indicated minute fractions were subjected to SDS-PAGE and Coomasie blue staining. Five microliters of the same fractions were in vitro phosphorylated as described in Materials and Methods, and the reaction stopped by boiling in SDS sample buffer. […]
Gel-filtration HPLC. […] The material was eluted from the column at 0.5 ml/min, monitored at 220 nm and minute fractions collected.
rGPBP and rGPBP-26 exist as very active high molecular weight aggregates. Gel filtration analysis of affinity-purified rGPBP or rGPBPΔ26 yielded two chromatographic peaks (I and II), both displaying higher MW than expected for the individual molecular species, as determined by SDS-PAGE studies (89 kDa and 84 kDa, respectively ) (FIG. 11). […] ATP, and analyzed by immunoblot and autoradiography.

B1: FLAG-tagged recombinant GPBPΔ26 (rGPBPΔ26) (enzyme)
chain: DYKDDDDKMSDNQSWNSSGSEEDPETESGPPVERCGVLSKWTNYIHGWQDRWVVLKNNALSYYKSEDETEYGCRGSICLSKAVITPHDFDECRFDISVNDSVWYLRAQDPDHRQQWIDAIEQHKTESGYGSESSLRRHGSMVSLVSGASGYSATSTSSFKKGHSLREKLAEMETFRDILCRQVDTLQKYFDACADAVSKDELQRDKVVEDDEDDFPTTRSDGDFLHSTNGNKEKLFPHVTPKGINGIDFKGEAITFKATTAGILATLSHCIELMVKREDSWQKRLDKETEKKRRTEEAYKNAMTELKKKSHFGGPDYEEGPNSLINEEEFFDAVEAALDRQDKIEEQSQSEKVRLHWPTSLPSGDAFSSVGTHRFVQKVEEMVQNHMTYSLQDVGGDANWQLVVEEGEMKVYRREVEENGIVLDPLKATHAVKGVTGHEVCNYFWNVDVRNDWETTIENFHVVETLADNAIIIYQTHKRVWPASQRDVLYLSVIRKIPALTENDPETWIVCNFSVDHDSAPLNNRCVRAKINVAMICQTLVSPPEGNQEISRDNILCKITYVANVNPGGWAPASVLRAVAKREYPKFLKRFTSYVQEKTAGKPILF
notes: From pHIL-FLAG-n4'Δ26 in Pichia pastoris, made by deleting the 78-bp exon from pHIL-FLAG-n4'
Q: Which results are given for B1?
A: trans-phosphorylation activity with GPpep1 (GPpep1): the reduced in-solution auto- and trans-phosphorylation activities displayed by rGPBPΔ26; binding result [1]: binds

— patent publication US20030054488A1 (published 2003)
